Experimental data as given in the supplement of paper PMC10567573.

B1: NP_009172.2 (parent)
chain: LPALFTDLYSQEITAEEAREALP
B2: ZNF8 (parent)
chain: KPYTCSVCGKSFSRTTCLFLHLRT

Variants of: B1
Assay: protein stability index of a GFP-peptide fusion (GPS, HEK-293T) (PSI 1-6); higher = more stable
Details: c terminus: native

Row | Variant | protein stability index
1 | LPALFTYLYSQEITAEEAREALP | 2.56
2 | LPALFTDLYSQEITAEECREALP | 2.91
3 | LPALFTKLYSQEITAEEAREALP | 3.33
4 | LPALFEDLYSQEITAEEAREALP | 3.68
5 | LPALFTDLYSQEITAEEAREALC | 4.21
6 | LPALFTDLYSQEITIEEAREALP | 2.76
7 | LPHLFTDLYSQEITAEEAREALP | 2.81
8 | LPALFTDLYSSEITAEEAREALP | 3.04
9 | LPALFTDLYSQEITAEEAREATP | 3.44
10 | LPALFTDLYSQEITAEENREALP | 2.75
11 | LPRLFTDLYSQEITAEEAREALP | 2.43
12 | LPALFTDLYSQEITEEEAREALP | 2.55
13 | LPALFTMLYSQEITAEEAREALP | 2.71
14 | LPALFTDLYDQEITAEEAREALP | 2.8
15 | LPALFTDLYSQEITAEEAREALA | 4.14
16 | LPALFTDLYSQEPTAEEAREALP | 3.87
17 | LPQLFTDLYSQEITAEEAREALP | 2.22
18 | LPALFTDLCSQEITAEEAREALP | 2.42
19 | LPAKFTDLYSQEITAEEAREALP | 2.77
20 | LPALFTDLVSQEITAEEAREALP | 2.21
21 | LPNLFTDLYSQEITAEEAREALP | 2.96
22 | LPALFTDLYSQEITAEEARQALP | 2.22

Row | Variant | protein stability index
23 | LPALFTDLYSQEITAEEARFALP | 2.43
24 | LPALFTDLYSVEITAEEAREALP | 2.79
25 | LPALFIDLYSQEITAEEAREALP | 2.7
26 | LPALFTDLYSQEITAEEMREALP | 2.75
27 | LPALFTDLYSQEITMEEAREALP | 2.51
28 | LPALFTDLYSQEITAHEAREALP | 2.75
29 | LPALFTTLYSQEITAEEAREALP | 2.57
30 | LPALFTDLYSQEITAEEAMEALP | 2.59
31 | LPALFTDLYSQEITAEEAREAQP | 3.01
32 | LPALFTDLYSQEITAERAREALP | 1.87
33 | LMALFTDLYSQEITAEEAREALP | 2.79
34 | LPALFTDLYSQEITAQEAREALP | 2.64
35 | LPALKTDLYSQEITAEEAREALP | 5.25
36 | LTALFTDLYSQEITAEEAREALP | 2.51
37 | LPALFTDLYSMEITAEEAREALP | 2.54
38 | LRALFTDLYSQEITAEEAREALP | 2.28
39 | LPALFTDLYCQEITAEEAREALP | 2.16
40 | LPALFTDLYSQEITAEEARLALP | 2.51
41 | LPALFTDLYSQEITAEEARYALP | 3.08
42 | LPALFTDLYSQNITAEEAREALP | 3.79
43 | LPALFTDLYSQEITAEFAREALP | 2.38
44 | LPAPFTDLYSQEITAEEAREALP | 4.94

Row | Variant | protein stability index
45 | LPALFTDLYSQEITAVEAREALP | 2.48
46 | LPALFTDLYSQEITAEEAREHLP | 2.29
47 | LGALFTDLYSQEITAEEAREALP | 3.03
48 | LPALFTDLYSWEITAEEAREALP | 2.63
49 | LPALFTQLYSQEITAEEAREALP | 2.63
50 | LPALFTDLYSQCITAEEAREALP | 3.19
51 | LPALFTDLYSQEITAEEARGALP | 2.11
52 | LPALFTDLYSQEITAELAREALP | 2.16
53 | LPALFTDLYSQEITAMEAREALP | 2.58
54 | LPALFTDLYSQENTAEEAREALP | 3.46
55 | LPALFTDLYSQEIKAEEAREALP | 2.34
56 | LPALFADLYSQEITAEEAREALP | 2.34
57 | LPALFTDAYSQEITAEEAREALP | 3.14
58 | LPALFTDLYSQEITAEEAREAWP | 2.67
59 | LPALFTDLYLQEITAEEAREALP | 2.3
60 | LPALFTELYSQEITAEEAREALP | 2.46
61 | LPALFTDLYSQEITAEEAREALV | 4.18
62 | LPALFTDLYSQEVTAEEAREALP | 2.46
63 | LPALFTDLYSQEITAEEAIEALP | 2.45
64 | LPALFTDLYSQEIEAEEAREALP | 2.66
65 | DPALFTDLYSQEITAEEAREALP | 3.9
66 | LPALFTGLYSQEITAEEAREALP | 4.02

Row | Variant | protein stability index
67 | LPALFTDLYSQEITFEEAREALP | 2.53
68 | LPAFFTDLYSQEITAEEAREALP | 2.99
69 | LPALFTDLYSQEITAEEAREALR | 2.83
70 | LPTLFTDLYSQEITAEEAREALP | 2.56
71 | LPAQFTDLYSQEITAEEAREALP | 3.62
72 | LPSLFTDLYSQEITAEEAREALP | 2.74
73 | LPALFTDLYSQEITAEEAREKLP | 2.46
74 | LPALFTDLYSQEITAEEARPALP | 2.86
75 | LPALFTDLYSQEITVEEAREALP | 2.78
76 | LPALFTDLYSQEITADEAREALP | 2.75
77 | LPALFTDLYAQEITAEEAREALP | 2.52
78 | LPKLFTDLYSQEITAEEAREALP | 2.1
79 | SPALFTDLYSQEITAEEAREALP | 2.32
80 | LPALFTDLYSQEITAEEAREAEP | 2.69
81 | LPALFTDLYSQEITAAEAREALP | 2.76
82 | LPALFTDLYSQEICAEEAREALP | 2.48
83 | LPALFTDLYSQEITAEEAREGLP | 2.81
84 | LPALLTDLYSQEITAEEAREALP | 5.16
85 | LPALFTDLYSPEITAEEAREALP | 3.82

Variants of: B2
Assay: as above
Details: c terminus: a fixed tail appended

Row | Variant | protein stability index
86 | APYTCSVCGKSFSRTTCLFLHLRT | 2.74
87 | CPYTCSVCGKSFSRTTCLFLHLRT | 2.08
88 | DPYTCSVCGKSFSRTTCLFLHLRT | 2.46
89 | EPYTCSVCGKSFSRTTCLFLHLRT | 2.19
90 | FPYTCSVCGKSFSRTTCLFLHLRT | 2.19
91 | GPYTCSVCGKSFSRTTCLFLHLRT | 2.48
92 | HPYTCSVCGKSFSRTTCLFLHLRT | 2.1
93 | IPYTCSVCGKSFSRTTCLFLHLRT | 2.04
94 | LPYTCSVCGKSFSRTTCLFLHLRT | 2.27
95 | MPYTCSVCGKSFSRTTCLFLHLRT | 2.22
96 | NPYTCSVCGKSFSRTTCLFLHLRT | 2.36
97 | PPYTCSVCGKSFSRTTCLFLHLRT | 1.91
